The values below come from US20180325981A1 (published 2018).

Square brackets hold non-standard residues; d marks the D form. Nva = CCC[C@H](N)C(=O)O A value given as a limit tells only on which side of the number the result lay.

Test [1] addresses T1, purified recombinant ADIPOR1 (A88) (UniProt Q96A54 89-375).
T1 construct: range 89-375; Expressed in SF9 cells by baculovirus, solubilised in DDM, purified on anti-Flag beads (eluted with Flag peptide) and by size exclusion as monomer; amine-coupled to a CM5 chip; also called adiponectin receptor 1; adiponectin receptor ADIPOR1; not shown: Flag tag at the N-terminus
T1 sequence: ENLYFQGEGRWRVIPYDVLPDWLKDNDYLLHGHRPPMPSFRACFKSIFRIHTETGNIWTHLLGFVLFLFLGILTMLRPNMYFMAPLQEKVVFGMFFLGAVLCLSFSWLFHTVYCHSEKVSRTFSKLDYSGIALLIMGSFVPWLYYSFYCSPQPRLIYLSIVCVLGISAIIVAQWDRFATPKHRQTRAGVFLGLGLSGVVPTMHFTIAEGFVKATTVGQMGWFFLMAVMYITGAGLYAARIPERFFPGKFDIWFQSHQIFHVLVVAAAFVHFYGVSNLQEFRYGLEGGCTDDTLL
Put plainly: SPR, ADIPOR1 amine-coupled to CM5 chip, peptide injected. The procedure:
(§1) In order to analyze the binding force between peptide and ADIPOR1, a purified recombinant ADIPOR1 (A88) was bound to a CM5 chip with 3000 RU or higher through amine coupling. Peptide was diluted with a running buffer (0.1% DDM, 0.005% CHS, 10 mM HEPES, 150 mM NaCl with pH 7.4) and injected into a SPR instrument at various concentrations to analyze the binding force. The affinity value was calculated using the affinity fitting or kinetics fitting method. In order to analyze peptide solubility, peptide stocks were prepared with DMSO, diluted in an appropriate buffer, and then undissolved precipitates were removed. The peptide concentrations were calculated by measuring the […] and A280 absorbance of each peptide.
With reference to FIGS. 3 and 4, surface plasmon resonance (SPR) experiments were performed in the present invention to measure the dissociation constant between the agonist peptide and the adiponectin receptor, particularly adiponectin receptor 1 (ADIPOR1). First, an expressed and purified adiponectin receptor ADIPOR1 was immobilized and its dissociation constant from candidate peptides was measured over a total of 4 rounds.

Test [2] has as its target purified recombinant ADIPOR1 (A88) (UniProt Q96A54). The test is described as follows: SPR, immobilised ADIPOR1.
Test [3] concerns the target T1, purified recombinant ADIPOR1 (A88). Put plainly: SPR; recombinant ADIPOR1 amine-coupled to a CM5 chip, peptide injected. The procedure:
as §1
In general terms: SPR reads the build-up and loss of mass on a sensor chip optically.

As to FYFAYHPNIPGLFYF (Synthetic 4th round agonist peptide) [peptide 4-4], in test [1], the Kd lay within 2 to 4.3 µM.

B1: reference peptide ADP355 (peptide)
peptide: H-[dN]IP[Nva]LY[dS]FA[dS]-NH2
SMILES: CCC[C@H](NC(=O)[C@@H]1CCCN1C(=O)[C@@H](NC(=O)[C@H](N)CC(N)=O)[C@@H](C)CC)C(=O)N[C@@H](CC(C)C)C(=O)N[C@@H](Cc1ccc(O)cc1)C(=O)N[C@H](CO)C(=O)N[C@@H](Cc1ccccc1)C(=O)N[C@@H](C)C(=O)N[C@H](CO)C(N)=O
Consider B1, for which, in test [2], the Kd is more than 100 µM.

B2: peptide 3-1 (peptide)
peptide: YYFAYHPNIPGLYYF
notes: Synthetic 3rd round agonist peptide designed for the adiponectin receptor
In the case of B2, in test [1], the Kd was not above 16 µM.

B3: 3-3 (peptide)
peptide: NIPGLWYFAY
notes: 3rd round synthetic peptide; also called peptide 3-3
Turning to B3, in test [3], the Kd worked out at 30.7 µM.

B4: 3-4 (peptide)
peptide: NIPGLFYFAY
notes: 3rd round synthetic peptide; also called peptide 3-4
For B4, the Kd in test [3] was 23.2 µM.
Consider WYFAYHPNIPGLWYF (Synthetic 4th round agonist peptide) [peptide 4-3], for which the Kd in test [1] lay within 6 to 10 µM.

As a reminder, the Kd is the constant that tells how readily two partners part at equilibrium.
